Source: publication PMC10143413, “Proteomic Profiling of Mouse Brain Pyruvate Kinase Binding Proteins: A Hint for Moonlighting Functions of PKM1?” (International Journal of Molecular Sciences, 2023)

Target: T1, Pyruvate kinase PKM1, purified from rabbit skeletal muscle (rabbit, UniProt P11974-1 1-531)
T1 construct: Pyruvate kinase PKM, isoform M1, rabbit skeletal muscle; called full-length PKM1; amine-coupled to a CM5 chip or used as analyte in SPR; also called full-length PKM1; PK1; source: isolated from skeletal muscles of adult rabbits, electrophoretically homogeneous
T1 sequence (P11974 whole entry, canonical isoform): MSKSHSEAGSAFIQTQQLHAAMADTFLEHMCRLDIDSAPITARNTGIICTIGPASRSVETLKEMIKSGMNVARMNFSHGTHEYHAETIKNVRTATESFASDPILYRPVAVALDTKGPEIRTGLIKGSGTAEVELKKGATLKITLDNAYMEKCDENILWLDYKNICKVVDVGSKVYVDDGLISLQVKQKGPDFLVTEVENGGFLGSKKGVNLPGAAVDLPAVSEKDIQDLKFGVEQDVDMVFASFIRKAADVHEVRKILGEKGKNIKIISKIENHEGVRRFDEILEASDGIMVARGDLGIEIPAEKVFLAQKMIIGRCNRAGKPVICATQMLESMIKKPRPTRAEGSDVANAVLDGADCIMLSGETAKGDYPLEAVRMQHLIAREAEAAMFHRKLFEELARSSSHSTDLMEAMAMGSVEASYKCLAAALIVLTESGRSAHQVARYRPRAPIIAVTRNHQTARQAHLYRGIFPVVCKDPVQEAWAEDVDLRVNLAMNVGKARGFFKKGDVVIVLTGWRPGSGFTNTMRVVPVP
Experiment: SPR; Biacore T200, 25 °C; GAPDH, LDH or aldolase A amine-coupled to a CM5 chip, PKM1 as analyte in 0.05 M potassium phosphate buffer pH 7.4, 10 µL/min for 5 min; global fit to the 1:1 binding model
Conditions: both partners purified

B1: Glyceraldehyde 3-phosphate dehydrogenase, purified from rabbit skeletal muscle (enzyme)
chain: not shown
notes: Glyceraldehyde-3-phosphate dehydrogenase, rabbit skeletal muscle; also called GAPDH; GAPD; source: isolated from skeletal muscles of adult rabbits, electrophoretically homogeneous
B1 was tested, and the Kd was 1.06 µM, the koff was 0.00162 s⁻¹ and the kon was 1530 M⁻¹ s⁻¹.
